The values that follow come from PMC3735941, “Clostridium scindens: a human gut microbe with a high potential to convert glucocorticoids into androgens” (Journal of Lipid Research, 2013).

What all share (assay): purified protein
What all share (assay type): biochemical, [Clostridium] scindens

Series [1] relates to C[C@]12CCC(=O)C=C1CC[C@@H]1[C@@H]2C(=O)C[C@@]2(C)[C@H]1CC[C@]2(O)C(=O)CO. The note with it: NADH co-substrate (150 μM in standard assay), 20 mM sodium phosphate pH 7.0, 0.1 M NaCl, 20% glycerol, 10 mM 2-mercaptoethanol, reductive direction.
Series [2] concerns C[C@]12CCC(=O)C=C1CC[C@@H]1[C@@H]2[C@@H](O)C[C@@]2(C)[C@H]1CC[C@]2(O)C(=O)CO. The note with it: NADH co-substrate (150 μM in standard assay), 20 mM sodium phosphate pH 7.0, 0.1 M NaCl, 20% glycerol, 10 mM 2-mercaptoethanol, reductive direction.
For series [3], the system named is C[C@]12CCC(=O)C=C1CC[C@@H]1[C@@H]2C(=O)C[C@@]2(C)[C@H]1CC[C@]2(O)[C@@H](O)CO. The note with it: co-substrate not printed for this constant (oxidative direction, NAD+ presumed), 20 mM sodium phosphate pH 7.0, 0.1 M NaCl, 20% glycerol, 10 mM 2-mercaptoethanol.

Broadly, the Km is the substrate concentration at which the rate is half of its maximum. Turning to “DesC (20α-HSDH; desC-ST) ([Clostridium] scindens ATCC 35704)”, the Km in series [1] worked out at 5.35 µM; in series [2], 1.46 µM; in series [3], 4.54 µM.
